For this assay, the target named is rat collagen (Type I collagen), coated on 96-well plates (rat) (UniProt P02454). As to the kind of experiment: binding of fluorescent protein or nanoworm conjugate to coated 96-well plates.
Chain of UniProt P02454 (P02454 152-1207, chain 1 of 2): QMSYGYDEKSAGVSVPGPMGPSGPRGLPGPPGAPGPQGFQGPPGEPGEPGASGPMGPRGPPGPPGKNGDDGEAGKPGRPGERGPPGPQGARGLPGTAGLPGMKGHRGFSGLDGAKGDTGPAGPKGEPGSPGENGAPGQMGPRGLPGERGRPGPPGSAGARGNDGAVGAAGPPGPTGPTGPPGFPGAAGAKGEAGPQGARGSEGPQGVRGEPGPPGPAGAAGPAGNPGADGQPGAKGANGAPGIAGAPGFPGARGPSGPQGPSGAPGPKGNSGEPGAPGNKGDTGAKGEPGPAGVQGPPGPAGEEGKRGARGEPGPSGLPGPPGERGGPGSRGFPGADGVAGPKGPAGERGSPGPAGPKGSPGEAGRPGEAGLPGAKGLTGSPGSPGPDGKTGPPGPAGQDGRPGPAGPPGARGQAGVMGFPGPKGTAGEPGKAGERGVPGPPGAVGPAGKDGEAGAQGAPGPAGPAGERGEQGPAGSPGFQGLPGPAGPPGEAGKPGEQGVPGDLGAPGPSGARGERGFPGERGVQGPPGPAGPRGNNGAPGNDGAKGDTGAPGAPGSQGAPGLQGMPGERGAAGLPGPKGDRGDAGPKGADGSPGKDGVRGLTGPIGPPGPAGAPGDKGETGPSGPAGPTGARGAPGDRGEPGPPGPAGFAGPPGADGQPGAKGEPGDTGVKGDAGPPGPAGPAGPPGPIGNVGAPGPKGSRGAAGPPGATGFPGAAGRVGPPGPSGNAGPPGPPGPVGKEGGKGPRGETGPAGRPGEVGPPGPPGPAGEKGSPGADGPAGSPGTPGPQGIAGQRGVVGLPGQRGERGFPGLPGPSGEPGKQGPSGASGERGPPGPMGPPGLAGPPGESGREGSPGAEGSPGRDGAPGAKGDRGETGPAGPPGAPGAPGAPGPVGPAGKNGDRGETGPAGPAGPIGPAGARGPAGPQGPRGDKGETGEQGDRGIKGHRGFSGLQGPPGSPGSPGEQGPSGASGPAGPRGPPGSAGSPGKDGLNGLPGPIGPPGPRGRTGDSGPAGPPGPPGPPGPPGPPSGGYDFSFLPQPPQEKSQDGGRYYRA
Chain of UniProt P02454 (P02466 86-1125, chain 2 of 2, further chain): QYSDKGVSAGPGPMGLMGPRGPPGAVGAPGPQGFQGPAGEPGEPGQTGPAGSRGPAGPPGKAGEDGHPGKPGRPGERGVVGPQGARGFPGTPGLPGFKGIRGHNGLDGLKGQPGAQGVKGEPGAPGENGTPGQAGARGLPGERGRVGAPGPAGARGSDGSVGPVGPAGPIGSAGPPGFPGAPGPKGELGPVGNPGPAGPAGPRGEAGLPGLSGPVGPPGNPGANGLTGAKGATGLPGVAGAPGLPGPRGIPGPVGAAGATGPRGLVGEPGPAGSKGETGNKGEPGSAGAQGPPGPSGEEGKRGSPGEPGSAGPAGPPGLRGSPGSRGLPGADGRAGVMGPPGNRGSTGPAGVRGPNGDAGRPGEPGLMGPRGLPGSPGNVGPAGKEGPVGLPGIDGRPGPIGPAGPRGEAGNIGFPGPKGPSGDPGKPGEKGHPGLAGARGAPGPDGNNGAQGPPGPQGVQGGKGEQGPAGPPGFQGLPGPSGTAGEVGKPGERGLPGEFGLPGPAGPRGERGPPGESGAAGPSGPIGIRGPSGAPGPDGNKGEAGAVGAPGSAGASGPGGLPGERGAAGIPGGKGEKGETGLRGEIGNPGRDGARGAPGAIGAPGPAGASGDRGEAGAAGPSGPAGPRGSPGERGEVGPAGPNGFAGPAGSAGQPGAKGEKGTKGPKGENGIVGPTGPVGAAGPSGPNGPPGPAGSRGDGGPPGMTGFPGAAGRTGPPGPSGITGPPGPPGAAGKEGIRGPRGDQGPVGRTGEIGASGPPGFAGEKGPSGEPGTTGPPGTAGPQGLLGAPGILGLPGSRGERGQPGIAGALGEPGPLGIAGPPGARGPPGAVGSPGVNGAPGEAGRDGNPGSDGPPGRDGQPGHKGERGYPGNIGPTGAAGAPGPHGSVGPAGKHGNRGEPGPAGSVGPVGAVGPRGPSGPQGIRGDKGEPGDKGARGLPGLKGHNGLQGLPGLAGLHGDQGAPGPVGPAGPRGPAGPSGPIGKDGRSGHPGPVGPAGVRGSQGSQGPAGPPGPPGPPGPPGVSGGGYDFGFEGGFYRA

In turn, “45-kDa gelatin-binding fibronectin proteolytic fragment, labelled with VivoTag-S750 (domain or fragment)” came in with a fold increase in binding to heated collagen, normalized to collagen at 37 °C of 7.2 x and a half-maximal binding temperature (temperature to which the collagen was heated) of 43.4 °C.
In the case of “fibronectin fragment-conjugated iron oxide nanoworms”, the fold increase in binding over unheated controls was 6 fold and the half-maximal binding temperature (temperature to which the collagen was heated) was 41.7 °C.

The record behind these values is PMC3809612.
